Measurements reported in patent US20250313611A1.

Tests used:
[1] = biological target: spike protein of authentic SARS-COV-2 614G virus (SARS-CoV-2 614G) (UniProt P0DTC2); assay: cell-based or functional assay
[2] = biological target: spike protein of authentic SARS-COV-2 Delta virus (SARS-CoV-2 Delta); assay: cell-based or functional assay
[3] = biological target: spike protein of authentic SARS-COV-2 Omicron BA.1 virus (SARS-CoV-2 Omicron BA.1); assay: cell-based or functional assay
[4] = biological target: spike protein of authentic SARS-COV-2 Omicron BA.2 virus (SARS-CoV-2 Omicron BA.2); assay: cell-based or functional assay
[5] = biological target: spike protein of authentic SARS-COV-2 Omicron BA.5 virus (SARS-CoV-2 Omicron BA.5); assay: cell-based or functional assay
[6] = biological target: SARS-COV-2 spike [change] trimer ([change]-foldon-His-Strep) (SARS-CoV-2 (Wuhan)) (UniProt P0DTC2)

| Substance | GM IC50 in ng/mL (GSD factor), live virus microneutralisation [1] [ng/mL] | GM IC50 in ng/mL (GSD factor), live virus microneutralisation [2] [ng/mL] | GM IC50 in ng/mL (GSD factor), live virus microneutralisation [3] [ng/mL] | GM IC50 in ng/mL (GSD factor), live virus microneutralisation [4] [ng/mL] | GM IC50 in ng/mL (GSD factor), live virus microneutralisation [5] [ng/mL] | IC50 (read off the curve) [6] [µg/mL] |
| --- | --- | --- | --- | --- | --- | --- |
| Bebtelovimab Biosimilar (PX-TA1750) (antibody) | 3.8 | 1.6 | 2.5 | 1.7 | 2.4 |  |
| sotrovimab Biosimilar (PX-TA1637) (antibody) | 205 | 141 | 1100 | 7150 | > 10000 |  |
| cilgavimab Biosimilar (PX-TA1033) (antibody) | 30.9 | 28.8 | 156 | 21.2 |  |  |
| CB6 monoclonal antibody |  |  |  |  |  | 0.05 |
